Columns and labels:
Type in all cases: biochemical
Conditions in all cases: glycoproteins at 10 mg/ml
β4Gal-T3 = target: T1, β4Gal-T3 (Homo sapiens, UniProt O60512); test: β4Gal-T3 galactosyltransferase activity assay (soluble enzyme, Sf9 media)
T1 construct: media from Sf9 cells expressing secreted forms of either β4Gal-T2 or -T3 were used as enzyme sources; secretion signal of vector pAcGP67 (gp67 leader; own knowledge of the vector) (N); made in house; host or cells: Sf9 cells, baculovirus; unpurified culture supernatant
Description: An expression construct designed to encode amino acid residues 31-372 of β4Gal-T2 was prepared by RT-PCR with mRNA from Colo205 cell line, using the primer pair EBER100FOR (5′-[…]; SEQ ID NO: 9) and EBER114 (5′-[…]; SEQ ID NO: 10) with BamH1 restriction sites (FIG. 2). The PCR product were cloned into the BamHI site of pAcGP67 (Pharmingen), and the construct sequenced to verify correct insertion and sequence. The plasmid pAcGP67-β4Gal-T2-sol was co-transfected with Baculo-Goldä DNA (Pharmingen) as described previously (Bennett et al., 1996). Recombinant Baculo-virus were obtained after two successive amplifications in Sf9 cells grown in serum-containing medium, and titres of virus were estimated by titration in 24-well plates with monitoring of enzyme activities. Controls included pAcGP67-β4Gal-T3-sol (Almeida et al., 1997) and pAcGP67-GalNAc-T3-sol (Bennett et al., 1996).
(§1) Standard assays were performed in […] total reaction mixtures containing 25 mM Tris (pH 7.5), 10 mM MnCl2, 0.25% Triton X-100, […] UDP-[^14C]-Gal (2,300 cpm/nmol) (Amersham), and varying concentration of acceptor substrates (Sigma) (see Table I for structures). The soluble constructs were assayed with […] of culture supernatant from infected cells, whereas the full length construct was assayed with 1% Triton X-100 homogenates of washed cells. Bovine milk P1,4Gal-transferase (Sigma) was used as control.
(§2) Reaction products were quantified by Dowex-1 chromatography. Assays with hen egg Ovalbumin (Sigma), asialo-fetuin (Sigma), and asialo-agalacto-fetuin (Sigma, treated with bgalactosidase) were performed with the standard reaction mixture modified to contain […] UDP-Gal, 54 mM NaCl, and 0.5 mg Ovalbumin. The transfer of Gal was evaluated after precipitation by filtration through Whatman GF/C glass fiber filters.

Bovine milk β4Gal-T = target: T2, Bovine milk β4Gal-T (Bos taurus, UniProt P08037); test: Bovine milk β4Gal-transferase activity assay (control enzyme)
T2 construct: Purified bovine milk enzyme; purchased Sigma; host or cells: bovine milk
T2 sequence (P08037 79-402 limits assumed): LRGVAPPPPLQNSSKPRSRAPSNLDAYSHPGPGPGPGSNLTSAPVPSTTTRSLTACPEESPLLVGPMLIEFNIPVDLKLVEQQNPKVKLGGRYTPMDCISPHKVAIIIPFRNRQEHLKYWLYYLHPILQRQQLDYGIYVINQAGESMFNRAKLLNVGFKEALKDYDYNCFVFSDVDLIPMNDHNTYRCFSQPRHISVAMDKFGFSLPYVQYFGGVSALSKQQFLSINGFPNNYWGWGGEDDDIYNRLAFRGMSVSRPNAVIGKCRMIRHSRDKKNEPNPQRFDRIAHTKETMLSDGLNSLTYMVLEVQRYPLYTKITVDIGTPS
Description: as §1, §2

β4Gal-T2 = target: T3, β4Gal-T2 (Homo sapiens, UniProt O60909); test: β4Gal-T2 galactosyltransferase activity assay (soluble enzyme, media of infected Sf9 cells)
T3 construct: An expression construct designed to encode amino acid residues 31-372 of β4Gal-T2 was prepared by RT-PCR; secretion signal of vector pAcGP67 (gp67 leader; own knowledge of the vector) (N); made in house; host or cells: Sf9 (Spodoptera frugiperda) cells, baculovirus; unpurified culture supernatant
T3 sequence (O60909 31-372): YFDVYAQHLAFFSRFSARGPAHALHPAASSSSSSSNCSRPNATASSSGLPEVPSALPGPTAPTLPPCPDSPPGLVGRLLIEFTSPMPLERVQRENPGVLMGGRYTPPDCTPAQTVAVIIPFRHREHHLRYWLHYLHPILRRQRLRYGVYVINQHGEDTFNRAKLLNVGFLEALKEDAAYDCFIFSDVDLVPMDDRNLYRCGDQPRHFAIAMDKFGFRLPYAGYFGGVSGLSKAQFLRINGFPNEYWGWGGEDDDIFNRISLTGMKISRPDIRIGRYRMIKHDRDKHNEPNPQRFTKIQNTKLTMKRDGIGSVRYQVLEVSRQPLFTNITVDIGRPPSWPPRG
Text: The PCR product were cloned into the BamHI site of pAcGP67 (Pharmingen), and the construct sequenced to verify correct insertion and sequence. The plasmid pAcGP67-β4Gal-T2-sol was co-transfected with Baculo-Goldä DNA (Pharmingen) as described previously (Bennett et al., 1996). Recombinant Baculo-virus were obtained after two successive amplifications in Sf9 cells grown in serum-containing medium, and titres of virus were estimated by titration in 24-well plates with monitoring of enzyme activities. Controls included pAcGP67-β4Gal-T3-sol (Almeida et al., 1997) and pAcGP67-GalNAc-T3-sol (Bennett et al., 1996).
as §1
Reaction products were quantified by Dowex-1 chromatography. […] The transfer of Gal was evaluated after precipitation by filtration through Whatman GF/C glass fiber filters.

T1 sequence (O60512 32-393 limits assumed): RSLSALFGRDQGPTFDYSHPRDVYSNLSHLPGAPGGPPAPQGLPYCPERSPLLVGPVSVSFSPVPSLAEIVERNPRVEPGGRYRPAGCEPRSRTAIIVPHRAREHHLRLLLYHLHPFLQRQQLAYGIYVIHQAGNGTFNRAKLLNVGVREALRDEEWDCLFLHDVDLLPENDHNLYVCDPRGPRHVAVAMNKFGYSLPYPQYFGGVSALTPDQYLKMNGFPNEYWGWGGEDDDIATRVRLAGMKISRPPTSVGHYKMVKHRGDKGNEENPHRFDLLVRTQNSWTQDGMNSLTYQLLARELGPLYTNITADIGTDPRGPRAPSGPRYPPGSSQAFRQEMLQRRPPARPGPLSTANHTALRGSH

- β4Gal-T3 activity with acceptor substrate (β4Gal-T3): 1.0 nmol/min/mL
- Bovine milk β4Gal-T activity with acceptor substrate (Bovine milk β4Gal-T): 0.7 nmol/min/µg
- β4Gal-T2 activity with acceptor substrate (β4Gal-T2): 2.0 nmol/min/mL
B1: Hen egg albumin: glycoprotein acceptor, hen egg Ovalbumin (Sigma) (protein, UniProt P01012 2-386, looked up)
Ovalbumin: GSIGAASMEFCFDVFKELKVHHANENIFYCPIAIMSALAMVYLGAKDSTRTQINKVVRFDKLPGFGDSIEAQCGTSVNVHSSLRDILNQITKPNDVYSFSLASRLYAEERYPILPEYLQCVKELYRGGLEPINFQTAADQARELINSWVESQTNGIIRNVLQPSSVDSQTAMVLVNAIVFKGLWEKAFKDEDTQAMPFRVTEQESKPVQMMYQIGLFRVASMASEKMKILELPFASGTMSMLVLLPDEVSGLEQLESIINFEKLTEWTSSNVMEERKIKVYLPRMKMEEKYNLTSVLMAMGITDVFSSSANLSGISSAESLKISQAVHAAHAEINEAGREVVGSAEAGVDAASVSEEFRADHPFLFCIKHIATNAVLFFGRCVSP
